# B1: MERS VHH-55 (VHH)
# VHH: QVQLQESGGGLVQAGGSLRLSCVASGSIFSINAMDWYRQAPGKQRELVAGITSGGSTNYGDFVKGRFTISRDNAKNTVYLQMDSLKPEDTAVYYCAAEVGGWGPPRPDYWGHGTQVTVSS
# B2: Fc-tagged MERS-CoV RBD (domain or fragment)
# chain: EAKPSGSVVEQAEGVECDFSPLLSGTPPQVYNFKRLVFTNCNYNLTKLLSLFSVNDFTCSQISPAAIASNCYSSLILDYFSYPLSMKSDLSVSSAGPISQFNYKQSFSNPTCLILATVPHNLTTITKPLKYSYINKCSRFLSDDRTEVPQLVNANQYSPCVSIVPSTVWEDGDYYRKQLSPLEGGGWLVASGSTVAMTEQLQMGFGITVQYGTDTNSVCPKLE
# Key:
# [1] = molecular target: MERS VHH-55 (His-tagged, mammalian expression) (llama); test: SPR
# [2] = molecular target: MERS-CoV S1 protein (MERS-CoV England1, UniProt K9N5Q8)
# Chain of MERS-CoV S1 protein (K9N5Q8 18-751): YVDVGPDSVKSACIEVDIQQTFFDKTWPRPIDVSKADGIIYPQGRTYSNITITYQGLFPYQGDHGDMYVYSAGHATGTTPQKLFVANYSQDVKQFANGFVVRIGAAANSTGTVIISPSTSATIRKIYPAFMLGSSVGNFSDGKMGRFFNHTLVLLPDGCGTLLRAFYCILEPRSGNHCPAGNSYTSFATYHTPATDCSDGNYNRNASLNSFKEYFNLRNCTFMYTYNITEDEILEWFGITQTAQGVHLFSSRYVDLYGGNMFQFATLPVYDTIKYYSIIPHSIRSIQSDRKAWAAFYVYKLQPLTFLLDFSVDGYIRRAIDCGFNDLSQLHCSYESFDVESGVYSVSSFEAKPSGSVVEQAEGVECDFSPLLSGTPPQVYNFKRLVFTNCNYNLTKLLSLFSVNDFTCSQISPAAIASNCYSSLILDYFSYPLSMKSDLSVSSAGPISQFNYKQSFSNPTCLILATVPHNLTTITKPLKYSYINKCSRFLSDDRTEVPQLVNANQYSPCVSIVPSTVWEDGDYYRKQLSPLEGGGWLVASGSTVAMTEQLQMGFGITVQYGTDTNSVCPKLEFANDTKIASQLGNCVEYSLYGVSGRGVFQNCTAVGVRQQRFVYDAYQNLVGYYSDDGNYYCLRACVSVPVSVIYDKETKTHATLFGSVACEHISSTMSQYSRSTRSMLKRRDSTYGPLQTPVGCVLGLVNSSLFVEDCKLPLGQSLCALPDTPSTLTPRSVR
# [3] = molecular target: MERS-CoV RBD protein (MERS-CoV England1, UniProt K9N5Q8)
# [4] = molecular target: MERS-CoV RBD (crystallised, tag and glycans removed) (MERS-CoV England1, UniProt K9N5Q8)
# [5] = molecular target: DPP4 protein (recombinant, soluble) (UniProt P27487 40-766); test: BLI
# Chain of DPP4 protein (recombinant, soluble) (P27487 40-766): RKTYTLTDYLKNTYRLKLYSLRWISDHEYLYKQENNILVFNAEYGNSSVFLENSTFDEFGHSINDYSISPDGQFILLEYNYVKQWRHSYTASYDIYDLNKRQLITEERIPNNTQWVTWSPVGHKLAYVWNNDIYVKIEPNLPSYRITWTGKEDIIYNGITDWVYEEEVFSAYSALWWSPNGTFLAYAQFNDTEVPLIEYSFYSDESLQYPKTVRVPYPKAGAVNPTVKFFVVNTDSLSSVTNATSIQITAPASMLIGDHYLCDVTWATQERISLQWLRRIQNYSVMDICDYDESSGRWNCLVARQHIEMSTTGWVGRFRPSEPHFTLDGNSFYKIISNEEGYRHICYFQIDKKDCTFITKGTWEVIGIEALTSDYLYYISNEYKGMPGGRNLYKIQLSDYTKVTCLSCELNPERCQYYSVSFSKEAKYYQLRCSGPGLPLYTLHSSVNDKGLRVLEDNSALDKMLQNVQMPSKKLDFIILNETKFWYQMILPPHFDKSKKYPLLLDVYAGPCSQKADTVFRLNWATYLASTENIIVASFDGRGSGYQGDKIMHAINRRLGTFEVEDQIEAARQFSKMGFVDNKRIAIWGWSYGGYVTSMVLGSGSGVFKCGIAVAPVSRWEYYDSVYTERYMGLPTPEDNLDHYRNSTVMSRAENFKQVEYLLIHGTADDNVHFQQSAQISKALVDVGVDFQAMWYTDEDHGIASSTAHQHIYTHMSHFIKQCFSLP
molecule,measurement,setting,value
MERS-CoV RBD protein (from UniProt K9N5Q8 367-589) (domain or fragment),Kd,[1],0.0792 nM
B1,binding result,[2],binds
same,binding result,[3],binds
same,binding result,[4],binds
B2,binding result,[5],binds
